Data on 4 molecules can be found in patent US20240360208A1 (Hoffmann-La Roche, published 2024).

Test [1] concerns the target T1, human CCL2 (MCP1) - P8A variant (human, UniProt P13500 24-99).
T1 construct: In-house point mutant that cannot dimerise; also called monomeric human CCL2; monomeric CCL2
The test is described as follows: SPR T200, 37 C. As to the method: (§1) Anti-human Fc (GE Healthcare) was immobilized on each flow cells of a CM4 sensor chip using amine coupling kit (GE Healthcare) according to the recommended settings by the manufacturer. Antibodies and analytes were diluted into ACES pH 7.4 or pH 5.8 buffer (20 mM ACES, 150 mM NaCl, 1 mg/ml BSA, 0.05% Tween 20, 0.005% NaN3). […] Sensor surface was regenerated each cycle with 3M MgCl2.

For test [2], the target named is T1, human CCL2 (MCP1) - P8A variant. The test is described as follows: SPR T200, 37 C, anti-human Fc capture, 1:1 model, pH 5.8. As to the method:
as §1

For test [3] the target is unchanged. The test is described as follows: SPR T200, 37 C, anti-human Fc capture, 1:1 model, pH 7.4. As to the method:
as §1

The target is the same in test [4]. The test is described as follows: SPR (Biacore T200), 37 °C, ACES pH 7.4; antibody captured on anti-human Fc, monomeric human CCL2 at 8 nM; response normalised to capture level. As to the method:
as §1

Test [5] addresses T2, human CCL8 (MCP2) - P8A variant (human, UniProt P80075 24-99).
T2 construct: Proline 8 of mature CCL8 (NP_005614.2) mutated to alanine; also called monomeric human CCL8; CCL8 P8A variant (monomer)
T2 chain: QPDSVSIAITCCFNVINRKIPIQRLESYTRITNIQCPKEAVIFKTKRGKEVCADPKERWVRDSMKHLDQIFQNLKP
The test is described as follows: SPR T200, 37 C, anti-human Fc capture, 1:1 model, pH 7.4; pH 7.4. The procedure: as §1

The target of test [6] is T3, human FcγRIIa on CHO-K1 cells (clone 138) (human, UniProt P12318 34-317).
T3 sequence (looked up): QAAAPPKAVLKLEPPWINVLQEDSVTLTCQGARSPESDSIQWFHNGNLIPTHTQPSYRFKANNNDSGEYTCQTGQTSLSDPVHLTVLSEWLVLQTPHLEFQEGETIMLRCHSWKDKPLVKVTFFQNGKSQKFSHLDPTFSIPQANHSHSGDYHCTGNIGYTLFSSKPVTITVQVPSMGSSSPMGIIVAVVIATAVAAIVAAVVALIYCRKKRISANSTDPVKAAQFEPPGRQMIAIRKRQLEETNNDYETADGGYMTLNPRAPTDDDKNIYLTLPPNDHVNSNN
The test is described as follows: cell-based or functional assay.

Test [7] has as its target T4, human FcγRIIb receptor on CHO-K1 cells (clone 223) (human, UniProt P31994 43-310).
T4 sequence (looked up): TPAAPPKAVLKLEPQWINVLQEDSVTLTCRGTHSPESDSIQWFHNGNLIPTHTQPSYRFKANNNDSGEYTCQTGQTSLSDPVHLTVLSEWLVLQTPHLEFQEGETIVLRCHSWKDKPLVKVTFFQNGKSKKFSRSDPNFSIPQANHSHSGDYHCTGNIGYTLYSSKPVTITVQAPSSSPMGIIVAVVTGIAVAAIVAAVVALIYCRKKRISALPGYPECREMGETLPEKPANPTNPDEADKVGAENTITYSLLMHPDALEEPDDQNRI
Nature of the test: cell-based or functional assay.

Test [8] addresses human CCL2 (MCP1) - wild type (wt) (human, UniProt P13500 24-99). The test is described as follows: cell-based or functional assay.

Changes are numbered by the printed parent chain. Where only a bound is given, the exact number is not on record here.

B1: CKLO03 (IgG1 wild type) (bispecific antibody, V domains shown)
VH 1: QVQLVQSGAEVKKPGSSVKVSCKASGLTISHTYMHWVRQAPGQGLEWMGRIDPDNHNTKFDPKFQGRVTITADTSTSTAYMELSSLRSEDTAVYYCARGVFGFFDHWGQGTTVTVSS
VL 1: DIQMTQSPSSLSASVGDRVTITCKATEDIYNRLAWYQQKPGKAPKLLIHGATSLEHGVPSRFSGSGSGTDYTLTISSLQPEDFATYYCQQFRSAPYTFGGGTKVEIK
VH 2: QVQLVQSGAEVKKPGSSVKVSCKASGGTFSHYGISWVRQAPGQGLEWMGGVIPIFHTANYAQKFQGRVTITADESTSTAYMELSSLRSEDTAVYYCARYDAHYGELDFWGQGTLVTVSS
VL 2: EIVLTQSPATLSLSPGERATLSCRASQHVSDAYLAWYQQKPGQAPRLLIYDASDRAEGVPARFSGSGSGTDFTLTISSLEPEDFAVYYCHQYIHLHSFTFGQGTKVEIK
notes: CrossMab, IgG1 wild type with knobs-into-holes; also called CKLO3; 11K2H1503/11K2L1201//CNTO888H0695/CNTO888L0616
As usually defined, the Kd is the constant that tells how readily two partners part at equilibrium. Low readings indicate tighter binding, high ones weaker binding. As to B1, in test [1], the “fold weaker KD at pH 5.8 than at pH 7.4” value is over 1000 fold. The dissociation constant Kd in test [2] was 21.7 nM; in test [3], 0.00685 nM.

B2: CKLO04 (IgG1 wild type) (bispecific antibody, V domains shown)
VH 1: B1 VH 1
VL 1: B1 VL 1
VH 2: B1 VH 2 with V51I, P53H
VL 2: B1 VL 2
notes: CrossMab, IgG1 wild type with knobs-into-holes; also called CKLO4; 11K2H1503/11K2L1201//CNTO888H0625/CNTO888L0616
With B2, the binding result in test [4] is given as “binds”.

B3: CKLO01 (IgG1 wild type) (bispecific antibody, V domains shown)
VH 1: B1 VH 1
VL 1: B1 VL 1 with T26F, L33R, R92W
VH 2: B1 VH 2
VL 2: B1 VL 2
notes: also called CKLO1; 11K2H1503/11K2L1338//CNTO888H0695/CNTO888L0616
Consider B3, for which the Kd in test [5] amounted to 23.3 nM. This counts as double-digit nanomolar.

B4: P1AF8142 (CKLO2-CB-SG1095) (bispecific antibody)
chain 1: not shown
chain 2: QVQLVQSGAEVKKPGSSVKVSCKASGLTISHTYMHWVRQAPGQGLEWMGRIDPDNHNTKFDPKFQGRVTITADTSTSTAYMELSSLRSEDTAVYYCARGVFGFFEHWGQGTTVTVSSASTKGPSVFPLAPSSKSTSGGTAALGCLVKDYFPEPVTVSWNSGALTSGVHTFPAVLQSSGLYSLSSVVTVPSSSLGTQTYICNVNHKPSNTKVDKKVEPKSCGGSGGGGSGGDKTHTCPPCPAPELWNGPSVFLFPPKPKDTLMISRTPEVTCVVVDVSDEDPEVKFNWYVDGVEVHNAKTKPREELYNSTYRVVSVLTVLHRDWLNGKEYKCKVSNTALPKPIEKTISKAKGQRREPQVYTLPPCRDELTKNQVSLWCLVKGFYPSDIAVEWESNGQPENNYKTTPPVLDSDGSFFLYSKLTVDKSRWQQGNVFSCSVMHEALHAHYTRKELSLSPGKGGSGGGGSGGDIQMTQSPSSLSASVGDRVTITCKAFEDIYNRRAWYQQKPGKAPKLLIHGATSLEHGVPSRFSGSGSGTDYTLTISSLQPEDFATYYCQQFWSAPYTFGGGTKVEIKRTVAAPSVFIFPPSDEQLKSGTASVVCLLNNFYPREAKVQWKVDNALQSGNSQESVTEQDSKDSTYSLSSTLTLSKADYEKHKVYACEVTHQGLSSPVTKSFNRGEC
Take B4: the “EC50 (read off the curve) of the depletion of CCL2 from the supernatant of FcγRIIa CHO cells” value in test [6] was about 0.1 nM. In test [7], the “Depletion level max (%) of CCL2 from the supernatant” value was determined as 80%, the “EC50 [nM] of CCL2 depletion” value is 0.13 nM and the “EC90 [nM] of CCL2 depletion” value stood at 0.5 nM. The “IC50, inhibition of THP-1 migration (chemotaxis assay)” value in test [8] came out at 0.2 µg/mL.
